This is an account of results in patent US20190092852A1.

For test [1], the target named is T1, human IL-33 (R&D Systems, #3625-IL-010/CF) (human) (UniProt O95760).
T1 sequence (looked up): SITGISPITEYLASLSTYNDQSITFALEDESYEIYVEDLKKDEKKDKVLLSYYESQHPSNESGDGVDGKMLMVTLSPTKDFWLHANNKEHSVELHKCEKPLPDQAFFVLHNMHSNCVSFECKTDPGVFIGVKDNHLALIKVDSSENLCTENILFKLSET

Test [2] has as its target human IL-33 N-His (human).
The target of test [3] is T1, human IL-33 (R&D Systems, #3625-IL-010/CF) (human). This is another data set of the same source.
Test [4] concerns the target human ST2L on HEK-BLUE IL-33/IL-1beta cells (human) (UniProt Q01638).
The target of test [5] is T1, human IL-33 (R&D Systems, #3625-IL-010/CF) (human). This is another data set of the same source.
The target in test [6] is human IL-33 (cell-based blocking assay of Example 2) (human) (UniProt O95760).
Test [7] addresses cyno IL-33 (cell-based blocking assay of Example 2) (cynomolgus monkey).
For test [8], the target named is T1, human IL-33 (R&D Systems, #3625-IL-010/CF) (human). This is another data set of the same source.
Test [9] has the same target. The test is described as follows: cell-based or functional assay.
Test [10] addresses cynomolgus monkey N-terminal 6-His-tagged and C-terminal Avi-tagged IL-33 (S112-T270) (cynomolgus monkey). The test is described as follows: cell-based or functional assay.

Sequence of cyno IL-33 (cell-based blocking assay of Example 2) (cynomolgus monkey) (chain, as listed by the source): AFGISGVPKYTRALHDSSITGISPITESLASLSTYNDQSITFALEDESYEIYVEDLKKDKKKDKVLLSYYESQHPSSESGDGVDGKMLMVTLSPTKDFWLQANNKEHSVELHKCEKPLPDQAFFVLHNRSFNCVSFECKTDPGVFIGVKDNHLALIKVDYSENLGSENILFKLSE
Sequence of cynomolgus monkey N-terminal 6-His-tagged and C-terminal Avi-tagged IL-33 (S112-T270) (cynomolgus monkey) (chain, as listed by the source limits assumed): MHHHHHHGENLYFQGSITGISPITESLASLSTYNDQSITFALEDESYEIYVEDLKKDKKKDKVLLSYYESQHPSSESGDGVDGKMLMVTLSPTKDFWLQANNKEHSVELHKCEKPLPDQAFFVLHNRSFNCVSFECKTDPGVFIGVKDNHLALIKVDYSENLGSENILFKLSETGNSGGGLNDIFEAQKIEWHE
Sequence of human ST2L on HEK-BLUE IL-33/IL-1beta cells (human) (Q01638 19-556 limits assumed): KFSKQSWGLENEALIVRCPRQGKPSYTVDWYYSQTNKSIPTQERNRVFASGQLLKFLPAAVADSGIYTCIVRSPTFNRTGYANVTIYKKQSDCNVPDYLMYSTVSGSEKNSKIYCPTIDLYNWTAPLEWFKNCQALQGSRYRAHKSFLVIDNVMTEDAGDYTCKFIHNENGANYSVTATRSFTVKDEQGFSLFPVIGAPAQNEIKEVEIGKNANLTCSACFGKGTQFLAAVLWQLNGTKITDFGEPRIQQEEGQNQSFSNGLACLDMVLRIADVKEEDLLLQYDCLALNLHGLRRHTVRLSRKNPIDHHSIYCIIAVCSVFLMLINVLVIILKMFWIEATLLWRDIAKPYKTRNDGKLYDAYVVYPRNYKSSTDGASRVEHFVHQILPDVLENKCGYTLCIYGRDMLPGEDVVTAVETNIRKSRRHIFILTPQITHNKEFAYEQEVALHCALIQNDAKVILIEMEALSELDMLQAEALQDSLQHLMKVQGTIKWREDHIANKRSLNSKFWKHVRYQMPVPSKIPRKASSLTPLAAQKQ

The substance control IgG4 antibody had a Ph-p38 MFI at 0.4 nM Ab (500 pM human IL-33, primary basophils) in test [1] of 152 MFI. In [2], this substance returned an IC50 as printed in the table (fit value of a flat curve: Control IgG4 stays at about 115-125 % IL-33 activity up to 1e4 pM, no inhibition); SEAP reporter, HEK-BLUE IL-33 cells, 15 pM human IL-33 N-His of 7.63e-06 pM and an IC90 as printed in the table (fit value of a flat curve: Control IgG4 stays at about 115-125 % IL-33 activity up to 1e4 pM, no inhibition); SEAP reporter, HEK-BLUE IL-33 cells, 15 pM human IL-33 N-His of 1.08e-06 pM. In addition, the Ph-p38 MFI at 2 nM Ab (500 pM human IL-33, primary basophils) in test [3] stood at 110 MFI.
human IL-33 N-His (ligand): the EC50 (SEAP reporter OD 620, HEK-BLUE IL-33/IL-1beta cells) in test [4] was found to be 0.006 nM.
With “sST2-LZ (sST2 (M1-F328) C-terminal leucine zipper (LZ)-Flag-His) (receptor)”, in test [1], the Ph-p38 MFI at 0.4 nM sST2 (500 pM human IL-33, primary basophils) was 113 MFI. Moreover, in test [2], the IC50; SEAP reporter, HEK-BLUE IL-33 cells, 15 pM human IL-33 N-His, 20 h is 62.1 pM and the IC90; SEAP reporter, HEK-BLUE IL-33 cells, 15 pM human IL-33 N-His, 20 h came out at 257 pM. The same substance came in with an IC50 (read off the curve) in [5] of 0.0008 nM. In [6], this substance displayed an IC50 (HEK-BLUE SEAP reporter, IL-33 blocking) of 0.0122 nM and an IC90 (HEK-BLUE SEAP reporter, IL-33 blocking) of 0.0467 nM. In test [7], the IC50 (HEK-BLUE SEAP reporter, IL-33 blocking) is 0.0018 nM and the IC90 (HEK-BLUE SEAP reporter, IL-33 blocking) was 0.0036 nM. Moreover, the IC50, IL-33-induced phospho-p38 in primary human basophils, 500 pM hIL-33 in test [8] is 7.9e-13 M. The substance also showed a Ph-p38 MFI at 2 nM sST2 (500 pM human IL-33, primary basophils) in test [3] of 40 MFI. Besides, in [9], the HEK-BLUE SEAP reporter IC50 came to 0.027 nM and the IFN-γ secretion from primary NK cells, IC50 was found to be 0.15 nM. In test [10], this substance came in with an HEK-BLUE SEAP reporter IC50 of 0.03 nM.
